Results as given in patent publication US20240317834A1, “COMPOSITIONS AND METHODS FOR NEUROLOGICAL DISEASES” (CODA BIOTHERAPEUTICS, INC., priority 2020, published 2024).

Tests used:
Lenti-X 293T cells = test: YFP fluorescence quenching anion reporter plate reader assay of engineered receptors stimulated with acetylcholine or a non-native ligand; assay type: cell-based; conditions: for percent quench of YFP fluorescence, 30 nM TC-6683: TC-6683 30 nM; for percent quench of YFP fluorescence, 300 nM TC-6683: TC-6683 300 nM; for percent quench of YFP fluorescence, 3 uM TC-6683: TC-6683 3 uM; for percent quench of YFP fluorescence, 30 uM TC-6683: TC-6683 30 uM; for percent quench of YFP fluorescence, 100 uM TC-6683: TC-6683 100 uM; for percent quench of YFP fluorescence, 100 uM ach: acetylcholine 100 uM; for percent quench of YFP fluorescence, 300 uM ach: acetylcholine 300 uM; for percent quench of YFP fluorescence, 500 uM ach: acetylcholine 500 uM; for percent quench of YFP fluorescence, 1 mM ach: acetylcholine 1 mM; for percent quench of YFP fluorescence, 3 mM ach: acetylcholine 3 mM; for percent quench of YFP fluorescence, 10 mM ach: acetylcholine 10 mM
Outline: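 YFP quench was followed for about 1 min 43 s after ligand delivered in iodide-based ECS, pH 7.2. Values are end-of-read fluorescence (last 10 s) divided by the pre-ligand baseline (15 s). Cells were LX293T, transfected with receptor DNA a day before the assay.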

rat DRG neurons = test: Rheobase shift and evoked action potentials in rat DRG neurons (current clamp); assay type: cell-based; conditions: for Rheobase Shift; Rat DRG Neurons, Baseline: no ligand
Outline: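 Rat DRG neurons expressing engineered receptors, whole-cell current clamp at RT. ECS at pH 7.3; K-gluconate internal at pH 7.2. 500 ms steps from −200 to 700 pA with and without ligand. Rheobase taken as the smallest depolarising step that fires an action potential; input resistance from negative steps.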

B1: CODA1055: engineered chimeric LGIC receptor, R101W, Y115E, Y210W in SEQ ID NO: 33 (protein)
chain: MRCSPGGVWLALAASLLHVSLQGEFQRKLYKELVKNYNPLERPVANDSQPLTVYFSLSLLQIMDVDEKNQVLTTNIWLQMSWTDHYLQWNVSEYPGVKTVWFPDGQIWKPDILLENSADERFDATFHTNVLVNSSGHCQYLPPGIFKSSCPMDLKNFPMDVQTCKLKFGSWSYGGWSLDLQMQEADISGYIPNGEWDLVGIPGKRSERFWECCKEPYPDVTFTVTMRRRMGYYLIQMYIPSLLIVILSWISFWINMDAAPARVGLGITTVLTMTTQSSGSRASLPKVSYVKAIDIWMAVCLLFVFSALLEYAAVNFVSRQHKELLRFRRKRRHHKSPMLNLFQEDEAGEGRFNFSAYGMGPACLQAKDGISVKGANNSNTTNPPPAPSKSPEEMRKLFIQRAKKIDKISRIGFPMAFLIFNMFYWIIYKIVRREDVHNQ
modifications: synthetic sequence of chimeric LGIC
YFP fluorescence quenching using CNL001 (Lenti-X 293T cells; 1 nM CNL001, first column): −12.889% | YFP fluorescence quenching using CNL001 (Lenti-X 293T cells; 1 nM CNL001, second column): −13.295% | YFP fluorescence quenching using TC-5619/Bradanicline (Lenti-X 293T cells; 1 nM brd): −8.113% | YFP fluorescence quenching using TC-5619/Bradanicline (Lenti-X 293T cells; 3 nM brd): −11.136% | YFP fluorescence quenching using Varenicline (Lenti-X 293T cells; 3 nM var, first column): 0.468 | YFP fluorescence quenching using Varenicline (Lenti-X 293T cells; 3 nM var, second column): −10.015 | YFP fluorescence quenching using CNL001 (Lenti-X 293T cells; 10 nM CNL001, first column): −10.401% | YFP fluorescence quenching using CNL001 (Lenti-X 293T cells; 10 nM CNL001, second column): −7.981% | YFP fluorescence quenching using TC-5619/Bradanicline (Lenti-X 293T cells; 10 nM brd): 38.755% | YFP fluorescence quenching using TC-5619/Bradanicline (Lenti-X 293T cells; 30 nM brd): 39.111% | YFP fluorescence quenching using Varenicline (Lenti-X 293T cells; 30 nM var, first column): −15.532 | YFP fluorescence quenching using Varenicline (Lenti-X 293T cells; 30 nM var, second column): −14.462 | YFP fluorescence quenching using CNL001 (Lenti-X 293T cells; 50 nM CNL001, first column): −1.972% | YFP fluorescence quenching using CNL001 (Lenti-X 293T cells; 50 nM CNL001, second column): −1.661% | YFP fluorescence quenching using ABT-126 (Lenti-X 293T cells; 50 nM abt): −21.36% | YFP fluorescence quenching using CNL001 (Lenti-X 293T cells; 100 nM CNL001, first column): 0.277% | YFP fluorescence quenching using CNL001 (Lenti-X 293T cells; 100 nM CNL001, second column): 4.325% | YFP fluorescence quenching using ABT-126 (Lenti-X 293T cells; 100 nM abt): −22.28% | YFP fluorescence quenching using TC-5619/Bradanicline (Lenti-X 293T cells; 100 nM brd): 61.378% | YFP fluorescence quenching using ABT-126 (Lenti-X 293T cells; 300 nM abt): −14.63% | YFP fluorescence quenching using TC-5619/Bradanicline (Lenti-X 293T cells; 300 nM brd): 52.398% | YFP fluorescence quenching using Varenicline (Lenti-X 293T cells; 300 nM var, first column): −17.027 | YFP fluorescence quenching using Varenicline (Lenti-X 293T cells; 300 nM var, second column): −15.59 | YFP fluorescence quenching using Varenicline (Lenti-X 293T cells; 500 nM var, first column): −13.343 | YFP fluorescence quenching using Varenicline (Lenti-X 293T cells; 500 nM var, second column): −10.702 | YFP fluorescence quenching using CNL001 (Lenti-X 293T cells; 1 uM CNL001, first column): 2.88% | YFP fluorescence quenching using CNL001 (Lenti-X 293T cells; 1 uM CNL001, second column): 3.259% | YFP fluorescence quenching using ABT-126 (Lenti-X 293T cells; 1 uM abt): −7.34% | YFP fluorescence quenching using Varenicline (Lenti-X 293T cells; 1 uM var, first column): −6.604 | YFP fluorescence quenching using Varenicline (Lenti-X 293T cells; 1 uM var, second column): −7.612 | percent quench of YFP fluorescence, 30 nM TC-6683 (Lenti-X 293T cells): −30.056% | percent quench of YFP fluorescence, 300 nM TC-6683 (Lenti-X 293T cells): −30.801% | percent quench of YFP fluorescence, 3 uM TC-6683 (Lenti-X 293T cells): −25.558% | percent quench of YFP fluorescence, 30 uM TC-6683 (Lenti-X 293T cells): −18.295% | percent quench of YFP fluorescence, 100 uM TC-6683 (Lenti-X 293T cells): −17.554% | percent quench of YFP fluorescence, 100 uM ach (Lenti-X 293T cells): −15.63% | percent quench of YFP fluorescence, 300 uM ach (Lenti-X 293T cells): −12.05% | percent quench of YFP fluorescence, 500 uM ach (Lenti-X 293T cells): −12.87% | percent quench of YFP fluorescence, 1 mM ach (Lenti-X 293T cells): −11.55% | percent quench of YFP fluorescence, 3 mM ach (Lenti-X 293T cells): 12.68% | percent quench of YFP fluorescence, 10 mM ach (Lenti-X 293T cells): 37.58% | Rheobase Shift; Rat DRG Neurons, +TC-5619 @ EC90 (rat DRG neurons): 562 ± 35 pA | Rheobase Shift; Rat DRG Neurons, Baseline (rat DRG neurons): 83 ± 7 pA

B2: CODA1056: engineered chimeric LGIC receptor, R101F, Y115E, Y210W in SEQ ID NO: 33 (protein)
chain: MRCSPGGVWLALAASLLHVSLQGEFQRKLYKELVKNYNPLERPVANDSQPLTVYFSLSLLQIMDVDEKNQVLTTNIWLQMSWTDHYLQWNVSEYPGVKTVFFPDGQIWKPDILLENSADERFDATFHTNVLVNSSGHCQYLPPGIFKSSCPMDLKNFPMDVQTCKLKFGSWSYGGWSLDLQMQEADISGYIPNGEWDLVGIPGKRSERFWECCKEPYPDVTFTVTMRRRMGYYLIQMYIPSLLIVILSWISFWINMDAAPARVGLGITTVLTMTTQSSGSRASLPKVSYVKAIDIWMAVCLLFVFSALLEYAAVNFVSRQHKELLRFRRKRRHHKSPMLNLFQEDEAGEGRFNFSAYGMGPACLQAKDGISVKGANNSNTTNPPPAPSKSPEEMRKLFIQRAKKIDKISRIGFPMAFLIFNMFYWIIYKIVRREDVHNQ
modifications: synthetic sequence of chimeric LGIC
YFP fluorescence quenching using CNL001 (Lenti-X 293T cells; 1 nM CNL001, first column): −8.104% | YFP fluorescence quenching using CNL001 (Lenti-X 293T cells; 1 nM CNL001, second column): −12.153% | YFP fluorescence quenching using TC-5619/Bradanicline (Lenti-X 293T cells; 1 nM brd): −7.894% | YFP fluorescence quenching using TC-5619/Bradanicline (Lenti-X 293T cells; 3 nM brd): −11.812% | YFP fluorescence quenching using CNL001 (Lenti-X 293T cells; 10 nM CNL001, first column): −10.462% | YFP fluorescence quenching using CNL001 (Lenti-X 293T cells; 10 nM CNL001, second column): −4.735% | YFP fluorescence quenching using TC-5619/Bradanicline (Lenti-X 293T cells; 10 nM brd): 36.211% | YFP fluorescence quenching using TC-5619/Bradanicline (Lenti-X 293T cells; 30 nM brd): 40.624% | YFP fluorescence quenching using CNL001 (Lenti-X 293T cells; 50 nM CNL001, first column): −8.617% | YFP fluorescence quenching using CNL001 (Lenti-X 293T cells; 50 nM CNL001, second column): −1.606% | YFP fluorescence quenching using ABT-126 (Lenti-X 293T cells; 50 nM abt): −20.96% | YFP fluorescence quenching using CNL001 (Lenti-X 293T cells; 100 nM CNL001, first column): −1.243% | YFP fluorescence quenching using CNL001 (Lenti-X 293T cells; 100 nM CNL001, second column): 1.838% | YFP fluorescence quenching using ABT-126 (Lenti-X 293T cells; 100 nM abt): −21.95% | YFP fluorescence quenching using TC-5619/Bradanicline (Lenti-X 293T cells; 100 nM brd): 65.869% | YFP fluorescence quenching using ABT-126 (Lenti-X 293T cells; 300 nM abt): −10.96% | YFP fluorescence quenching using TC-5619/Bradanicline (Lenti-X 293T cells; 300 nM brd): 59.661% | YFP fluorescence quenching using CNL001 (Lenti-X 293T cells; 1 uM CNL001, first column): −0.567% | YFP fluorescence quenching using CNL001 (Lenti-X 293T cells; 1 uM CNL001, second column): 4.663% | YFP fluorescence quenching using ABT-126 (Lenti-X 293T cells; 1 uM abt): 10.79% | percent quench of YFP fluorescence, 30 nM TC-6683 (Lenti-X 293T cells): −19.889% | percent quench of YFP fluorescence, 300 nM TC-6683 (Lenti-X 293T cells): −22.443% | percent quench of YFP fluorescence, 3 uM TC-6683 (Lenti-X 293T cells): −12.623% | percent quench of YFP fluorescence, 30 uM TC-6683 (Lenti-X 293T cells): −10.728% | percent quench of YFP fluorescence, 100 uM TC-6683 (Lenti-X 293T cells): −10.959% | percent quench of YFP fluorescence, 100 uM ach (Lenti-X 293T cells): −20.55% | percent quench of YFP fluorescence, 300 uM ach (Lenti-X 293T cells): −19.32% | percent quench of YFP fluorescence, 500 uM ach (Lenti-X 293T cells): −19.75% | percent quench of YFP fluorescence, 1 mM ach (Lenti-X 293T cells): −14.08% | percent quench of YFP fluorescence, 3 mM ach (Lenti-X 293T cells): 14.07% | percent quench of YFP fluorescence, 10 mM ach (Lenti-X 293T cells): 25.7% | Rheobase Shift; Rat DRG Neurons, +TC-5619 @ EC90 (rat DRG neurons): 632 ± 43 pA | Rheobase Shift; Rat DRG Neurons, Baseline (rat DRG neurons): 114 ± 12 pA
